Measurements taken from the supplement of paper PMC7877785.
± gives the uncertainty stated by the source.

Experiment: self-splicing fitness, log relative to wild type (ln ratio); higher = more splicing; Tetrahymena group I intron in knt gene, E. coli kanamycin selection, DiMSum; sequences stand for … in CUCUCU…GGAGGGAAAAGUUAUCAGGCAUGCACCUGGUAGCUAGUCUUUAAACCAAUAGAUUGCAUCGGUUUAAAAGGCAAGACCGUCAAAUUGCGGGAAAGGGGUCAACAGCCGUUCAGUACCAAGUCUCAGGGGAAACUUUGAGAUGGCCUUGCAAAGGGUAUGGUAAUAAGCUGACGGACAUGGUCCUAACCACGCAGCCAAGUCCUAAGUCAACAGAUCUUCUGUUGAUAUGGAUGCAGUUCACAGACUAAAUGUCGGUCGGGGAAGAUGUAUUCUUCUCAUAAGAUAUAGUCGGACCUCUCCUUAAUGGGAGCUAGCGGAUGAAGUGAUGCAACACUGGAGCCGCUGGGAACUAAUUUGUAUGCGAAAGUAUAUUGAUUAGUUUUGGAGUACUCGUGGUCG
How it was run: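 Pooled colonies went to amplicon sequencing on an Illumina HiSeq 2500 after six replicate transformations. The plates were LB agar with 100 μg/mL carbenicillin, 50 μM IPTG and 0.2% rhamnose, with or without 25 μg/mL kanamycin, incubated overnight at 37°C or 30°C. The E. coli BL21(DE3) library had all eight P1ex-region intron nucleotides randomised, the intron placed in the knt kanamycin-resistance gene on pET-22b(+). DiMSum fitness is the error-weighted combination of replicate fold changes, kanamycin against none, normalised to wild type.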

| Sequence | self-splicing fitness (ln) (30 °C) | self-splicing fitness (ln) (37 °C) |
| --- | --- | --- |
| GCCUAGCAAUAUUACGUGCU | -2.06 ± 0.074 | -1.17 ± 0.084 |
| GCCUAGCAAUAUUACGUGGU | -3.71 ± 0.22 | -2.23 ± 0.25 |
| GCCUAGCAAUAUUACGUGUA | -1.55 ± 0.086 | -0.545 ± 0.088 |
| GCCUAGCAAUAUUACGUGUU | -0.926 ± 0.042 | 0.15 ± 0.055 |
| GCCUAGCAAUAUUACGUUUC | -2.03 ± 0.073 | -0.802 ± 0.079 |
| GCGAAGCAAUAUUACGAAUA | -2.34 ± 0.19 | -1.73 ± 0.24 |
| GCGAAGCAAUAUUACGAGUA | -2.13 ± 0.3 | -1.28 ± 0.19 |
| GCGAAGCAAUAUUACGAUCU | -1.09 ± 0.066 | -0.73 ± 0.079 |
| GCGAAGCAAUAUUACGGCAC | 0.112 ± 0.13 | 0.387 ± 0.17 |
| GCGAAGCAAUAUUACGGUUA | 0.0459 ± 0.22 | -0.871 ± 0.19 |
| GCGAAGCAAUAUUACGUCGG | -2.61 ± 0.21 | -0.565 ± 0.25 |
| GCGAAGCAAUAUUACGUGCA | -1.21 ± 0.13 | -0.452 ± 0.097 |
| GCGAAGCAAUAUUACGUGGC | -3.33 ± 0.39 | -2.35 ± 0.44 |
| GCGAAGCAAUAUUACGUGUA | -1.88 ± 0.093 | -1.09 ± 0.072 |
| GCGAAGCAAUAUUACGUGUC | -4.67 ± 0.46 | -3.21 ± 0.33 |
| GCGAAGCAAUAUUACGUUAC |  | -2.72 ± 0.43 |
| GCGAAGCAAUAUUACGUUCC | -2.43 ± 0.37 | -2.29 ± 0.44 |
| GCGCAGCAAUAUUACGAAUA | -2.09 ± 0.2 | -1.02 ± 0.14 |
| GCGCAGCAAUAUUACGACAG | -3.49 ± 0.17 | -3.05 ± 0.18 |
| GCGCAGCAAUAUUACGACCC | 0.715 ± 0.26 | 0.34 ± 0.27 |
| GCGCAGCAAUAUUACGAUAG | -2.97 ± 0.16 | -0.857 ± 0.12 |
| GCGCAGCAAUAUUACGAUCA | -1.5 ± 0.14 | -0.594 ± 0.15 |
| GCGCAGCAAUAUUACGAUGG | -1.42 ± 0.11 | 0.113 ± 0.16 |
| GCGCAGCAAUAUUACGAUUA | -1.02 ± 0.13 | -1.48 ± 0.13 |
| GCGCAGCAAUAUUACGCCAU | -3.8 ± 0.38 | -1.84 ± 0.3 |
| GCGCAGCAAUAUUACGCCUC | 0.178 ± 0.29 | -1.24 ± 0.29 |

| Sequence | self-splicing fitness (ln) (30 °C) | self-splicing fitness (ln) (37 °C) |
| --- | --- | --- |
| GCGCAGCAAUAUUACGCUAA | -1.42 ± 0.085 | -1.06 ± 0.11 |
| GCGCAGCAAUAUUACGCUUA | -0.793 ± 0.062 | -0.338 ± 0.067 |
| GCGCAGCAAUAUUACGGAGC | -2.35 ± 0.26 | -2.38 ± 0.49 |
| GCGCAGCAAUAUUACGGAUG | -1.72 ± 0.1 | -1.39 ± 0.12 |
| GCGCAGCAAUAUUACGGCCG | -2.99 ± 0.38 | -2.26 ± 0.26 |
| GCGCAGCAAUAUUACGGCGC | -2.58 ± 0.21 | -1.98 ± 0.24 |
| GCGCAGCAAUAUUACGGGUC | -2.71 ± 0.11 | -0.449 ± 0.092 |
| GCGCAGCAAUAUUACGGUCA | -1.41 ± 0.12 | -1.49 ± 0.099 |
| GCGCAGCAAUAUUACGUCUC | -0.0041 ± 0.098 | 0.525 ± 0.12 |
| GCGCAGCAAUAUUACGUUCC | -0.792 ± 0.096 | -0.406 ± 0.13 |
| GCGCAGCAAUAUUACGUUGC | -2.95 ± 0.14 | -2.51 ± 0.27 |
| GCGCAGCAAUAUUACGUUUG | -1.86 ± 0.14 | -1.76 ± 0.14 |
| GCGGAGCAAUAUUACGAUAA |  | -2.08 ± 0.35 |
| GCGGAGCAAUAUUACGGACA | -1.62 ± 0.21 | -2.26 ± 0.31 |
| GCGGAGCAAUAUUACGGAUU | -3.69 ± 0.27 | -1.28 ± 0.2 |
| GCGGAGCAAUAUUACGGCUC | -2.05 ± 0.36 |  |
| GCGGAGCAAUAUUACGGGCC | -2.57 ± 0.42 |  |
| GCGGAGCAAUAUUACGGUCU | -3.04 ± 0.44 | -2.35 ± 0.36 |
| GCGGAGCAAUAUUACGUACC | -3.69 ± 0.36 | -0.124 ± 0.43 |
| GCGGAGCAAUAUUACGUGGA | -3.37 ± 0.38 | -2.38 ± 0.42 |
| GCGGAGCAAUAUUACGUGGG | -2.01 ± 0.3 | -2.25 ± 0.34 |
| GCGGAGCAAUAUUACGUUAA | -2.66 ± 0.25 | -2.32 ± 0.3 |
| GCGGAGCAAUAUUACGUUGU | -2.96 ± 0.13 | -1.79 ± 0.14 |
| GCGUAGCAAUAUUACGAAAA | -2.22 ± 0.41 | -1.48 ± 0.25 |
| GCGUAGCAAUAUUACGAACU | -0.546 ± 0.13 | -0.322 ± 0.11 |
| GCGUAGCAAUAUUACGACUA | 0.106 ± 0.14 | 0.571 ± 0.14 |

| Sequence | self-splicing fitness (ln) (30 °C) | self-splicing fitness (ln) (37 °C) |
| --- | --- | --- |
| GCGUAGCAAUAUUACGCCAU | -2.97 ± 0.31 | -2.93 ± 0.47 |
| GCGUAGCAAUAUUACGCCGC | -2.36 ± 0.42 |  |
| GCGUAGCAAUAUUACGCGGU | -2.42 ± 0.29 | -2.48 ± 0.3 |
| GCGUAGCAAUAUUACGCGUC | -2.75 ± 0.28 | -2.06 ± 0.46 |
| GCGUAGCAAUAUUACGCUAG | -2.9 ± 0.2 | -2.54 ± 0.29 |
| GCGUAGCAAUAUUACGCUCG | -3.75 ± 0.32 | -1.08 ± 0.2 |
| GCGUAGCAAUAUUACGCUUC |  | -0.836 ± 0.35 |
| GCGUAGCAAUAUUACGGAUA | -1.67 ± 0.13 | -0.826 ± 0.13 |
| GCGUAGCAAUAUUACGGCAU | -0.91 ± 0.061 | -0.0121 ± 0.072 |
| GCGUAGCAAUAUUACGGGAU | -1.51 ± 0.14 | -1.38 ± 0.21 |
| GCGUAGCAAUAUUACGGUAC | -2.72 ± 0.25 | -1.44 ± 0.19 |
| GCGUAGCAAUAUUACGGUCC | -1.23 ± 0.38 | -1.02 ± 0.3 |
| GCGUAGCAAUAUUACGUCAG | -1.8 ± 0.4 | -1.23 ± 0.4 |
| GCGUAGCAAUAUUACGUGGU | -3.53 ± 0.19 | -3.64 ± 0.22 |
| GCGUAGCAAUAUUACGUUCA | -0.985 ± 0.11 | -0.728 ± 0.12 |
| GCUAAGCAAUAUUACGAACG | -0.806 ± 0.068 | 0.22 ± 0.097 |
| GCUAAGCAAUAUUACGAACU | -0.229 ± 0.079 | 0.203 ± 0.095 |
| GCUAAGCAAUAUUACGAUCC | -0.136 ± 0.12 | -0.278 ± 0.14 |
| GCUAAGCAAUAUUACGAUCG | -1.1 ± 0.1 | -0.997 ± 0.12 |
| GCUAAGCAAUAUUACGCAAU | -1.55 ± 0.17 | -1.75 ± 0.15 |
| GCUAAGCAAUAUUACGCGCA | -0.989 ± 0.1 | -0.114 ± 0.12 |
| GCUAAGCAAUAUUACGCUAC | -2.37 ± 0.15 | -2.44 ± 0.26 |
| GCUAAGCAAUAUUACGCUCC | -1.01 ± 0.13 | -1.07 ± 0.18 |
| GCUAAGCAAUAUUACGCUUC | -2.89 ± 0.18 | -2.56 ± 0.23 |
| GCUAAGCAAUAUUACGGAGG | -1.11 ± 0.14 | -1.65 ± 0.29 |
| GCUAAGCAAUAUUACGGAGU | -4.27 ± 0.27 | -3.14 ± 0.26 |
